# Results reported in the Human Domainome abundance scans (Beltran et al. 2025).
# ± gives the uncertainty stated by the source.
# B1: Max-interacting protein 1, residues 70 to 120; numbered along this chain, P50539 (parent)
# chain: STHNELEKNRRAHLRLCLERLKVLIPLGPDCTRHTTLGLLNKAKAHIKKLE
# Variants of: B1
# Experiment: abundance fitness (aPCA) (normalised: wild type 0, dead -1); higher = more abundant; growth selection in yeast, the domain comes from the species named
# Conditions: Homo sapiens
row,Variant,abundance fitness
1,STHNELEKNRRCHLRLCLERLKVLIPLGPDCTRHTTLGLLNKAKAHIKKLE [A12C],-0.426 ± 0.13
2,STHNELEKNRRAHLRLCLERLKVLIPLGPDCWRHTTLGLLNKAKAHIKKLE [T32W],0.033 ± 0.095
3,STHNELEKNRRAHLRLCLERLKVLIPLGPDCSRHTTLGLLNKAKAHIKKLE [T32S],-0.109 ± 0.088
4,STHNELEKNRRAHLRLCLERLKVLIPLGPDCTRHTTLGLLNKAKVHIKKLE [A45V],-0.045 ± 0.09
5,STHNELEKNRRAHLRLCLERLKVLIPLGPDCTRHTTLGLLNKAKSHIKKLE [A45S],-0.262 ± 0.12
6,STHNELEKNRRAHLRLCLERLKVLIPLGPDCTRHTTLGLLNKAKFHIKKLE [A45F],-0.346 ± 0.15
7,STHNELEKNRRAHLPLCLERLKVLIPLGPDCTRHTTLGLLNKAKAHIKKLE [R15P],-0.21 ± 0.13
8,STHNELEKNRRAHLDLCLERLKVLIPLGPDCTRHTTLGLLNKAKAHIKKLE [R15D],-0.749 ± 0.16
9,STHNELEKNRRAHLTLCLERLKVLIPLGPDCTRHTTLGLLNKAKAHIKKLE [R15T],-0.407 ± 0.13
10,STHNELEKNRRAHLRLCLERLKVLITLGPDCTRHTTLGLLNKAKAHIKKLE [P26T],0.369 ± 0.12
11,STHNELEKNRRAHLRLCLERLKVLIKLGPDCTRHTTLGLLNKAKAHIKKLE [P26K],0.441 ± 0.12
12,STHNELEKNRRAHLRLCLERLKVLHPLGPDCTRHTTLGLLNKAKAHIKKLE [I25H],-0.744 ± 0.23
13,STHNELEKNRRAHLRLCLERLKVLIPLGPDCTRHTTLGLLNKAKAHEKKLE [I47E],-0.776 ± 0.16
14,STHNELEKNWRAHLRLCLERLKVLIPLGPDCTRHTTLGLLNKAKAHIKKLE [R10W],0.163 ± 0.11
15,STHNELEKNARAHLRLCLERLKVLIPLGPDCTRHTTLGLLNKAKAHIKKLE [R10A],0.038 ± 0.088
16,STHNELEKNCRAHLRLCLERLKVLIPLGPDCTRHTTLGLLNKAKAHIKKLE [R10C],-0.071 ± 0.14
17,STHNELEKNRRAHLRLCLERLKQLIPLGPDCTRHTTLGLLNKAKAHIKKLE [V23Q],0.123 ± 0.16
18,STHNELEKNRRAHLRLCLERLKVLIPLGPDCTRHTTLGLLNIAKAHIKKLE [K42I],-0.284 ± 0.16
19,STHNELEKNRRAHLRLCLERLKVLIPLEPDCTRHTTLGLLNKAKAHIKKLE [G28E],-0.38 ± 0.11
20,STHNELEKNRRAHLRLCLERLKVLIPLAPDCTRHTTLGLLNKAKAHIKKLE [G28A],-0.284 ± 0.12
21,STHNELEKNRRAHLRLCLERLKVLIPLGPDCTRHTTLGLLNKAKAHIYKLE [K48Y],0.026 ± 0.22
22,STHNELEKNRRAHLRLCLERLKVLIPLGPDCTRHTTLGLLNKAKAHITKLE [K48T],-0.719 ± 0.15
23,STHNELEKNRRAHLRLCLERLKVLIPLGPDCTRGTTLGLLNKAKAHIKKLE [H34G],0.114 ± 0.079
24,STHNELEKNRRAHLRLCLERLKVLIPLGPDCTRDTTLGLLNKAKAHIKKLE [H34D],-0.457 ± 0.12
25,STHNELEKNRRAHWRLCLERLKVLIPLGPDCTRHTTLGLLNKAKAHIKKLE [L14W],0.187 ± 0.091
26,STHNELEKNRRAHLRLCLERLKVLIPLGPDCTLHTTLGLLNKAKAHIKKLE [R33L],-0.438 ± 0.086

row,Variant,abundance fitness
1,STHNELEKNRRAHLRLCLERLKVLIPLGGDCTRHTTLGLLNKAKAHIKKLE [P29G],-0.119 ± 0.092
2,LTHNELEKNRRAHLRLCLERLKVLIPLGPDCTRHTTLGLLNKAKAHIKKLE [S1L],-0.59 ± 0.15
3,STHNELEKNRRAHLRLCLERLKVLIPLGPHCTRHTTLGLLNKAKAHIKKLE [D30H],0.031 ± 0.078
4,STHNELERNRRAHLRLCLERLKVLIPLGPDCTRHTTLGLLNKAKAHIKKLE [K8R],-0.353 ± 0.089
5,STHNELEWNRRAHLRLCLERLKVLIPLGPDCTRHTTLGLLNKAKAHIKKLE [K8W],-0.444 ± 0.11
6,STHNELEKNRRAHLRLCLERLKVLIPLGPDCTRHTTLGLLNKAKAHIKKLL [E51L],-0.182 ± 0.25
7,STHNELEKNRRAHLRLCLERLKVLIPLGPDCTRHTTLGLLFKAKAHIKKLE [N41F],-0.7 ± 0.3
8,STHNELEKNRRAHLRLCLERLKVLIPLGPDCTRHTTLGYLNKAKAHIKKLE [L39Y],-0.555 ± 0.16
9,STHNELHKNRRAHLRLCLERLKVLIPLGPDCTRHTTLGLLNKAKAHIKKLE [E7H],-0.3 ± 0.16
10,STHNELGKNRRAHLRLCLERLKVLIPLGPDCTRHTTLGLLNKAKAHIKKLE [E7G],-0.099 ± 0.081
11,STHNELCKNRRAHLRLCLERLKVLIPLGPDCTRHTTLGLLNKAKAHIKKLE [E7C],-0.267 ± 0.11
12,STHNELEKNRRAHLRLCLERLKVLIPLGPDCTRHTTLGLLNKAKAHIKFLE [K49F],-0.045 ± 0.19
13,STHNELEKNRRAHLRLCLERLKVLIPLGPDCTRHTTLGLLNKAKAHIKWLE [K49W],-0.041 ± 0.1
14,STHAELEKNRRAHLRLCLERLKVLIPLGPDCTRHTTLGLLNKAKAHIKKLE [N4A],-0.258 ± 0.096
15,STHNELEKNRRAHLRLCLERLKVLIPLGPDCTRHTTLGLLNKIKAHIKKLE [A43I],-0.2 ± 0.14
16,STHNELEKNRRAHLRLCLERLKVLIPLGPDCTRHTTLGLLNKAKAPIKKLE [H46P],-0.6 ± 0.16
17,STHNELEKNRRAHLRLCLERLKVLIPLGPDCTRHTTLGLLNKAKADIKKLE [H46D],-0.973 ± 0.18
18,STHNELEKNRRAHLRLCLEALKVLIPLGPDCTRHTTLGLLNKAKAHIKKLE [R20A],-0.677 ± 0.11
19,STHNELEKNRRAHLRLCLEWLKVLIPLGPDCTRHTTLGLLNKAKAHIKKLE [R20W],-0.912 ± 0.15
20,STHNELEKNRRAHLRLCLEFLKVLIPLGPDCTRHTTLGLLNKAKAHIKKLE [R20F],-0.971 ± 0.18
21,STHNELEKNRRAHLRLCLERLKVLIPLGPDWTRHTTLGLLNKAKAHIKKLE [C31W],0.19 ± 0.091
22,STHNELEKNRRAHLRLCLERLKVLIPLGPDCTRHTQLGLLNKAKAHIKKLE [T36Q],-0.199 ± 0.13
23,STHNELEKNRRAHLRLCLERLKVLIPLGPDCTRHTTKGLLNKAKAHIKKLE [L37K],0.073 ± 0.11
24,STHNELEKNRRAHLRLCLERLKVLIPLGPDCTRHTTQGLLNKAKAHIKKLE [L37Q],-0.154 ± 0.12
25,STHNFLEKNRRAHLRLCLERLKVLIPLGPDCTRHTTLGLLNKAKAHIKKLE [E5F],-0.514 ± 0.29
